In the supplement of paper PMC7877785:
± gives the uncertainty stated by the source.

Experiment: self-splicing fitness, log relative to wild type (ln ratio); higher = more splicing; Tetrahymena group I intron in knt gene, E. coli kanamycin selection, DiMSum; sequences stand for … in CUCUCU…GGAGGGAAAAGUUAUCAGGCAUGCACCUGGUAGCUAGUCUUUAAACCAAUAGAUUGCAUCGGUUUAAAAGGCAAGACCGUCAAAUUGCGGGAAAGGGGUCAACAGCCGUUCAGUACCAAGUCUCAGGGGAAACUUUGAGAUGGCCUUGCAAAGGGUAUGGUAAUAAGCUGACGGACAUGGUCCUAACCACGCAGCCAAGUCCUAAGUCAACAGAUCUUCUGUUGAUAUGGAUGCAGUUCACAGACUAAAUGUCGGUCGGGGAAGAUGUAUUCUUCUCAUAAGAUAUAGUCGGACCUCUCCUUAAUGGGAGCUAGCGGAUGAAGUGAUGCAACACUGGAGCCGCUGGGAACUAAUUUGUAUGCGAAAGUAUAUUGAUUAGUUUUGGAGUACUCGUGGUCG
Procedure, shortened: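 The eight P1ex-region nucleotides of an intron in the knt kanamycin-resistance gene on pET-22b(+) were all randomised and the library put into E. coli BL21(DE3). Six replicate transformations were grown overnight at 37°C or 30°C on LB agar with or without 25 μg/mL kanamycin, together with 100 μg/mL carbenicillin, 50 μM IPTG and 0.2% rhamnose. Colonies were pooled and amplicon-sequenced on an Illumina HiSeq 2500. Fitness from DiMSum is the error-weighted combination of wild-type-normalised replicate fold changes, kanamycin over none.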

Sequence	self-splicing fitness (ln) (30 °C)	self-splicing fitness (ln) (37 °C)
CGGUAGCAAUAUUACGUACG	-1.3 ± 0.12	-0.879 ± 0.16
CGGUAGCAAUAUUACGUAUG	-0.225 ± 0.092	0.297 ± 0.12
CGGUAGCAAUAUUACGUCAG	-0.671 ± 0.15	-1.09 ± 0.17
CGGUAGCAAUAUUACGUCCG	-2.86 ± 0.3	-2.02 ± 0.36
CGGUAGCAAUAUUACGUGAU	-1.49 ± 0.14	-0.851 ± 0.18
CGGUAGCAAUAUUACGUGGC	-3.4 ± 0.17	-3.09 ± 0.23
CGGUAGCAAUAUUACGUGUA	-3.31 ± 0.2	-2.97 ± 0.28
CGGUAGCAAUAUUACGUUCG	-2.19 ± 0.14	-1.99 ± 0.24
CGUAAGCAAUAUUACGAAUC	–	-2.06 ± 0.3
CGUAAGCAAUAUUACGAGAG	-3.56 ± 0.22	-3.14 ± 0.28
CGUAAGCAAUAUUACGAGCA	-1.84 ± 0.48	-1.33 ± 0.22
CGUAAGCAAUAUUACGAUUG	-0.745 ± 0.079	-0.605 ± 0.11
CGUAAGCAAUAUUACGCCGA	-3.5 ± 0.25	-1.44 ± 0.14
CGUAAGCAAUAUUACGCGAA	-3.5 ± 0.24	-3.88 ± 0.39
CGUAAGCAAUAUUACGCUAC	–	-1.98 ± 0.4
CGUAAGCAAUAUUACGCUUC	–	-2.52 ± 0.45
CGUAAGCAAUAUUACGGGAA	-3.04 ± 0.41	-1.9 ± 0.44
CGUAAGCAAUAUUACGGUAG	-2.56 ± 0.14	-1.4 ± 0.1
CGUAAGCAAUAUUACGGUCU	-2.56 ± 0.092	-1.46 ± 0.081
CGUAAGCAAUAUUACGGUUG	-0.897 ± 0.061	-0.159 ± 0.078
CGUAAGCAAUAUUACGUAGG	-1.09 ± 0.082	-0.149 ± 0.11
CGUAAGCAAUAUUACGUCAU	-3.23 ± 0.17	-2.38 ± 0.17
CGUAAGCAAUAUUACGUUGG	-1.93 ± 0.12	-0.912 ± 0.13
CGUCAGCAAUAUUACGAAAU	-3.61 ± 0.23	-2.6 ± 0.22

Sequence	self-splicing fitness (ln) (30 °C)	self-splicing fitness (ln) (37 °C)
CGUCAGCAAUAUUACGAAUA	-2.58 ± 0.16	-1.98 ± 0.16
CGUCAGCAAUAUUACGAAUG	-0.494 ± 0.077	-0.0535 ± 0.093
CGUCAGCAAUAUUACGAGCA	-0.74 ± 0.14	-0.627 ± 0.14
CGUCAGCAAUAUUACGAUAC	-2.65 ± 0.14	-1.38 ± 0.12
CGUCAGCAAUAUUACGCACG	-2.16 ± 0.11	-1.22 ± 0.12
CGUCAGCAAUAUUACGCAUG	-1.06 ± 0.07	0.0876 ± 0.082
CGUCAGCAAUAUUACGCCAG	-0.944 ± 0.15	-0.48 ± 0.23
CGUCAGCAAUAUUACGCGCA	-1.1 ± 0.14	-0.181 ± 0.13
CGUCAGCAAUAUUACGCGUG	-0.575 ± 0.054	-0.39 ± 0.066
CGUCAGCAAUAUUACGCUAU	-3.14 ± 0.19	-1.55 ± 0.17
CGUCAGCAAUAUUACGGCGC	-3.38 ± 0.37	-1.3 ± 0.35
CGUCAGCAAUAUUACGGGAC	-3.95 ± 0.25	-1.73 ± 0.23
CGUCAGCAAUAUUACGGGAG	-2.36 ± 0.098	-0.946 ± 0.11
CGUCAGCAAUAUUACGGGUU	-3.44 ± 0.17	-2.56 ± 0.15
CGUCAGCAAUAUUACGGUAU	-2.04 ± 0.11	-2.59 ± 0.16
CGUCAGCAAUAUUACGGUGA	-2.52 ± 0.11	-2.81 ± 0.16
CGUCAGCAAUAUUACGGUUU	-2.39 ± 0.098	-1.97 ± 0.097
CGUCAGCAAUAUUACGUAUG	-0.163 ± 0.12	0.188 ± 0.13
CGUCAGCAAUAUUACGUCCG	-1.03 ± 0.11	-0.273 ± 0.14
CGUCAGCAAUAUUACGUCCU	-1.88 ± 0.081	-1.27 ± 0.098
CGUCAGCAAUAUUACGUCUU	-2.3 ± 0.14	-0.743 ± 0.11
CGUCAGCAAUAUUACGUGAU	-2.04 ± 0.1	-1.18 ± 0.13
CGUCAGCAAUAUUACGUGCA	-0.497 ± 0.057	-0.0444 ± 0.072
CGUCAGCAAUAUUACGUGCC	-0.61 ± 0.16	0.32 ± 0.19
